Earlier results as cited in article PMC5053023.

Target: SRSF1 RS domain (Homo sapiens) (UniProt Q07955)
UniProt Q07955, sequence (Q07955 198-248): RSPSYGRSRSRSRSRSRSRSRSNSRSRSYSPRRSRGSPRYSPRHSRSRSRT

## SRPK1 (from UniProt Q96SB4)
  Kd: 100 nM
